These results are taken from patent US9988424 (DUKE UNIVERSITY, dated 2018).

Read-outs that look alike come from different tables or passages of the source. Where only a bound is given, the exact number is not on record here.

The target of assay [1] is AE.A244 V1V2 Tags (HIV-1).
The next assay concerns the target Env of SHIV-1157ipEL-p (SHIV). As to the kind of experiment: cell-based or functional assay.
A further assay concerns the target Env of SHIV-BaL (SHIV). As to the kind of experiment: cell-based or functional assay.
The next assay deals with Env of SHIV SF162P3 (SHIV). As to the kind of experiment: cell-based or functional assay.
In a further assay the target is Env of SHIV-SF162P4 (SHIV). As to the kind of experiment: cell-based or functional assay.
For a further assay, the target named is Env of SHIV-1157ipd3N4 (SHIV). In words: cell-based or functional assay.
Assay [2] addresses D.9009SA V1/V2 tags. As to the kind of experiment: ELISA, OD405 at 10 ug/ml. Background: In an ELISA, binding on a coated surface is turned into a signal by an enzyme label.
For assay [3], the target named is T1, gp70 B.CaseA2 V1/V2 (HIV-1 V1V2 on murine leukemia virus gp70).
T1 construct: also called B.gp70CaseA2 V1/V2; gp70 B.CaseAV1V2
T1 chain: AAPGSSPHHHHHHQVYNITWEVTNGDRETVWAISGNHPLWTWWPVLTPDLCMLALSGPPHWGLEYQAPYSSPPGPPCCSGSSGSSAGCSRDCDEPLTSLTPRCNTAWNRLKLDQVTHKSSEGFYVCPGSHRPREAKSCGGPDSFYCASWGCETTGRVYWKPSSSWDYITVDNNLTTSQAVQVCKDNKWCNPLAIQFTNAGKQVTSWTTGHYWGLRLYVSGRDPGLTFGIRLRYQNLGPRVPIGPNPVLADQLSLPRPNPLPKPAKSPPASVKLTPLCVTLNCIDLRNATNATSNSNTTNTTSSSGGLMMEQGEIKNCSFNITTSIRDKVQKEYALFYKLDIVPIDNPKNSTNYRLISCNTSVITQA
In words: SPR (BIAcore), mAb captured on anti-Fc surface, V1V2 protein injected as analyte, Synagis surface subtracted, global 1:1 Langmuir fit. In general terms: In SPR one partner is held on a chip, and binding of the other changes the refractive index at the surface.

For assay [4], the target named is AE.A244 V1V2 Tags (HIV-1). As to the kind of experiment: ELISA.
Another assay has as its target T2, Con 6 120.
T2 construct: also called Con 6 gp120
In words: ELISA OD405nm, bar chart, antibody concentration not given.

The target in another assay is T3, SIV CPZ US-1 gp140CF (SIVcpz).
T3 construct: also called US-1 SIVCPZ gp140CF
T3 chain: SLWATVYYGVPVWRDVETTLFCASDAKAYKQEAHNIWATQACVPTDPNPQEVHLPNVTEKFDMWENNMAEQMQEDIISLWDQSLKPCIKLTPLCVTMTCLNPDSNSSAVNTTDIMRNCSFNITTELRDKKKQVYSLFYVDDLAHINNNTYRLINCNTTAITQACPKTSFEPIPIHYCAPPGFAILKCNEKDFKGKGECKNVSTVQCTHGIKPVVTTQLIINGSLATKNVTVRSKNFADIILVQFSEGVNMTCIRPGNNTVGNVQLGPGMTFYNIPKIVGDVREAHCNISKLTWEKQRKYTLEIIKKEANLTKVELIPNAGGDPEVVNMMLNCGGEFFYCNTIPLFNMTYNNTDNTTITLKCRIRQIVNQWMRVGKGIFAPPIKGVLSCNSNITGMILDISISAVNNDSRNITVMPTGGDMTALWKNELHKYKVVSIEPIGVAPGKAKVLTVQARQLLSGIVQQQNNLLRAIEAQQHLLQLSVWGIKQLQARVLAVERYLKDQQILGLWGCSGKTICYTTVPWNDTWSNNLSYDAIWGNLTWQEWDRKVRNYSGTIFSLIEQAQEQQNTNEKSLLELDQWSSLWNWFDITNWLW
Described as above.

In the next assay the target is T4, G.con 140CF.
T4 construct: also called G.con gp140CF; G.con.env03 gp140CF
Described as above.

Assay [5] addresses B.040 gp140C. Described as above.
A further assay addresses T5, B.62357 140C.
T5 construct: also called B.62357 gp140C
The description is as above.

A further assay addresses T6, B.con env03 140CF.
T6 construct: also called B.con gp140CF
Described as above.

A further assay deals with T7, AE.con env03 40CF.
T7 construct: also called AE.con gp140CF; AE.con.env03 gp140CF
The assay is described as above.

The target of another assay is J08 A.92RW020V1V2 (HIV-1). In words: ELISA, OD405 at 10 ug/ml.
Another assay deals with T8, J08 B.HXB2/BALV1V2 (HIV-1).
T8 construct: also called J08 B.HXB/BAL V1V2
T8 chain: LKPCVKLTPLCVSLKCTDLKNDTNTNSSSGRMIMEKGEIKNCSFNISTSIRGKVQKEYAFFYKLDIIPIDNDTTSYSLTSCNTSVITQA
As to the kind of experiment: ELISA, OD405 at 10 ug/ml.

The target of assay [6] is T1, gp70 B.CaseA2 V1/V2. In words: ELISA, OD405 at 10 ug/ml.
Assay [7] deals with D.9009SA V1/V2 tags. In words: ELISA, OD405 at 10 ug/ml. The source holds these as a separate data set.
In the next assay the target is B.9021 gp140C (HIV-1). As to the kind of experiment: ELISA, OD405 at 10 ug/ml.
Assay [8] has as its target B.040 gp140C. In words: ELISA, OD405 at 10 ug/ml.
Another assay deals with B.con gp140CF. In words: ELISA, OD405 at 10 ug/ml.
The target of the next assay is T9, B.62357 gp140C.
T9 construct: also called B.62357 140C
As to the kind of experiment: ELISA, OD405 at 10 ug/ml.

The target in another assay is 92TH023 gp120 (HIV-1).

B1: CH59 (antibody, V domains shown)
VH: EVQLVESGGGLVQPGRSLRLSCAASGFTFDDGAMHWVRQAPGKGLEWVSGISWNSNIIAYADSVKGRFTISRDNAKNSLYLEMNSLRVEDTALYYCAKDSPRGELPLNYWGQGTLVTVSS
VL: SYELTQPPSVSVSPGQTARITCSGDALPKNYAYWYQQKSGQAPVLVIYEDSKRPSGIPERFSGSSSGTMATLTISGAQVEDEADYYCYSTDSSGNHRVFGGGTKLTVL
notes: also called mAb CH59
In general, Kd refers to the constant that tells how readily two partners part at equilibrium. A low value points to tighter binding. In general, koff refers to the first-order rate constant of dissociation. Broadly, the kon is the rate constant with which the complex forms. A lower kon goes with slow association. In the assay with AE.A244 V1V2 Tags [1], B1 had a Kd of 0.48 nM, a koff of 0.00011 s⁻¹ and a kon of 238000 M⁻¹ s⁻¹. For the same molecule, the “EC50, neutralization of SHIV C.1157ipEL-p (tier 1A)” value with Env of SHIV-1157ipEL-p amounted to 24.6 µg/mL. Moreover, the “EC50, neutralization of SHIV B.BaL (tier 2)” value with Env of SHIV-BaL is more than 50 µg/mL. In addition, the “EC50, neutralization of SHIV B.SF162P3 (tier 2)” value with Env of SHIV SF162P3 is more than 50 µg/mL. In addition, in the assay with Env of SHIV-SF162P4, the “EC50, neutralization of SHIV B.SF162P4 (tier 2)” value is more than 50 µg/mL. For the same molecule, in the assay with Env of SHIV-1157ipd3N4, the “EC50, neutralization of SHIVC.1157ipd3N4 (tier 2)” value was more than 50 µg/mL.

B2: 697D (antibody, V domains shown)
VH: QVQLVQSGAEVKKPGSSVKVSCKASGGNFNTYTISWVRQAPGQGLEWMGRIIPIFGIVNPAQKFPGRVTINVDKSTNTAYMELSSLRSEDTAVYYCATSGVGLHFGYFDYWGQGTQVTVSS
VL: QSVLTQPPSVSGAPGQRVTISCTGSSSNIGAHYDVHWYQQLPGTAPKLLIYGNSNRPSGVPDRFSGSKSGTSASLAITGLQAEDEADYYCQSYDSSLSGYVFGTGTKVTVL
notes: also called mAb 697D; V2 conformational mAb 697D
For orientation: EC50 (read off the curve) means the concentration at which the effect is half-maximal. A high value points to a less potent agent. For the molecule B2, in the assay with D.9009SA V1/V2 tags [2], the binding result is “no binding (tested: 10 ug/ml)”. In the assay with gp70 B.CaseA2 V1/V2 [3], this molecule yielded a dissociation constant Kd of 36.5 nM, a koff of 0.00038 s⁻¹ and a kon of 10000 M⁻¹ s⁻¹. Further, the “EC50 (read off the curve)” value in the assay with AE.A244 V1V2 Tags [4] was approximately 0.1 µg/mL.

B3: CH58 reverted unmutated ancestor antibody (antibody, V domains shown)
VH: EVQLVQSGAEVKKPGESLKISCKGSGYSFTSYWIGWVRQMPGKGLEWMGIIYPGDSDTRYSPSFQGQVTISADKSISTAYLQWSSLKASDTAMYYCARLGGRYYYDSSGYYYFDYWGQGTLVTVSS
VL: NFMLTQPHSVSESPGKTVTISCTRSSGSIASNYVQWYQQRPGSSPTTVIYEDNQRPSGVPDRFSGSIDSSSNSASLTISGLKTEDEADYYCQSYDSSSWVFGGGTKLTVL
notes: also called CH58 RUA; CH58_RUA
For the molecule B3, the binding result with Con 6 120, with SIV CPZ US-1 gp140CF, with G.con 140CF, in the assay with B.040 gp140C [5], with B.62357 140C and in the assay with B.con env03 140CF was “no binding (tested: not given)” throughout. In addition, the binding result with AE.con env03 40CF is recorded as “no binding (tested: not given)”.

B4: PG16 (antibody, V domains shown)
VH: QEQLVESGGGVVQPGGSLRLSCLASGFTFHKYGMHWVRQAPGKGLEWVALISDDGMRKYHSDSMWGRVTISRDNSKNTLYLQFSSLKVEDTAMFFCAREAGGPIWHDDVKYYDFNDGYYNYHYMDVWGKGTTVTVSS
VL: QSALTQPASVSGSPGQTITISCNGTSSDVGGFDSVSWYQQSPGKAPKVMVFDVSHRPSGISNRFSGSKSGNTASLTISGLHIEDEGDYFCSSLTDRSHRIFGGGTKVTVL
notes: also called mAb PG16; bnAb PG16
As a reminder, the IC50 is the midpoint of a concentration-inhibition curve. A higher IC50 goes with lower potency. Consider B4, for which the binding result with J08 A.92RW020V1V2, in the assay with J08 B.HXB2/BALV1V2, with gp70 B.CaseA2 V1/V2 [6], with D.9009SA V1/V2 tags [7], in the assay with B.9021 gp140C and in the assay with B.040 gp140C [8] was “no binding (tested: 10 ug/ml)” each time. Moreover, the binding result with B.con gp140CF and with B.62357 gp140C was “no binding (tested: 10 ug/ml)” each time. In addition, the IC50 with 92TH023 gp120 is 10 to 100 nM.
